According to US20230285583A1, “LIQUID FORMULATION OF LONG-ACTING CONJUGATE OF GLUCAGON, GLP-1, AND GIP TRIGONAL AGONIST” (HANMI PHARM, CO., LTD., priority 2020, published 2023):
Bridge positions count the residues as written; N and C are the ends. Square brackets hold non-standard residues; d marks the D form. Ends that are not written are not given here. Aib = CC(C)(N)C(=O)O

T1: human GIP receptor (human, UniProt P48546 22-466)
T1 sequence (looked up): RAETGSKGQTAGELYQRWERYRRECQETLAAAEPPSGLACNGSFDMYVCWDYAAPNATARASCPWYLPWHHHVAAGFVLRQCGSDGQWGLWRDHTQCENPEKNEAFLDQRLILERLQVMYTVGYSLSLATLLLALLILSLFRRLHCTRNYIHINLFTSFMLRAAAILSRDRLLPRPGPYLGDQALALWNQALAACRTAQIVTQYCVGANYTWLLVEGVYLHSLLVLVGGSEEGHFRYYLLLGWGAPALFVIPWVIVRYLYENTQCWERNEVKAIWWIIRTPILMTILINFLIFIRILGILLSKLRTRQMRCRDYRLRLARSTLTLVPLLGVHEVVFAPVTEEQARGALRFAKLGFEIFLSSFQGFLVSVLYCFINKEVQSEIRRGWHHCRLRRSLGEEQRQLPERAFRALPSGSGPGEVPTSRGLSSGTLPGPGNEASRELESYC


These binders were tested against T1, human GIP receptor (assay: cell-based or functional assay).
For Y[Aib]QGTFTSDYSKALDEKAAKDFVNWLLDHHPSSGQPPPSC (bridge 16-20; not fully specified (bridges)) [trigonal agonist of SEQ ID NO: 43], the “In Vitro Activity Compared to Native Peptide (%) vs. GIP (relative titer from cAMP EC50)” value was 57.7%. With H[Aib]QGTFTSDYSKYLDEKACKDFVQWLLDGGPSSGAPPPS (lactam 16-20) [trigonal agonist of SEQ ID NO: 5] the “In Vitro Activity Compared to Native Peptide (%) vs. GIP (relative titer from cAMP EC50)” value was 8.8%. With Y[Aib]QGTFTSDYSKALDEKAAKEFVQWLLDQHPSSGQPPPSC (bridge 16-20; not fully specified (bridges)) [trigonal agonist of SEQ ID NO: 44] the “In Vitro Activity Compared to Native Peptide (%) vs. GIP (relative titer from cAMP EC50)” value was 118%. Y[Aib]QGTFTSDYSKALDEKAAKEFVNWLLDQHPSSGQPPPSC (bridge 16-20; not fully specified (bridges)) [trigonal agonist of SEQ ID NO: 45] was tested, and the “In Vitro Activity Compared to Native Peptide (%) vs. GIP (relative titer from cAMP EC50)” value was 40.1%. In the case of Y[Aib]QGTFTSDYSKALDEKAAKDFVNWLLDQHPSSGQPPPSC (bridge 16-20; not fully specified (bridges)) [trigonal agonist of SEQ ID NO: 46], the “In Vitro Activity Compared to Native Peptide (%) vs. GIP (relative titer from cAMP EC50)” value is reported as 58%. H[Aib]QGTFTSDYSKYLDEKRQKEFVNWLLAQKC (bridge 16-20; not fully specified (bridges)) [trigonal agonist of SEQ ID NO: 6] was tested, and the “In Vitro Activity Compared to Native Peptide (%) vs. GIP (relative titer from cAMP EC50)” value was 0.6%. H[Aib]QGTFTSDYSKYLCEKRQKEFVQWLLNGGPSSGAPPPSG (bridge 16-20; not fully specified (bridges)) [trigonal agonist of SEQ ID NO: 7] was tested, and the “In Vitro Activity Compared to Native Peptide (%) vs. GIP (relative titer from cAMP EC50)” value was 0.2%. For H[Aib]QGTFTSDYSKYLDECRQKEFVQWLLNGGPSSGAPPPSG (bridge 16-20; not fully specified (bridges)) [trigonal agonist of SEQ ID NO: 8], the “In Vitro Activity Compared to Native Peptide (%) vs. GIP (relative titer from cAMP EC50)” value was 2.2%. Y[Aib]QGTFTSDYSKYLDEKRAKEFVQWLLDHHPSSGQPPPSC (lactam 16-20) [trigonal agonist of SEQ ID NO: 9] was tested, and the “In Vitro Activity Compared to Native Peptide (%) vs. GIP (relative titer from cAMP EC50)” value was 7.8%. With Y[Aib]QGTFTSDYSKYLDEKRAKEFVQWLLDHHCSSGQPPPS (bridge 16-20; not fully specified (bridges)) [trigonal agonist of SEQ ID NO: 10] the “In Vitro Activity Compared to Native Peptide (%) vs. GIP (relative titer from cAMP EC50)” value was 3.7%. H[Aib]QGTFTSDYSKYLDEKRAKEFVQWLLDHHPSSGQPPPSC (bridge 16-20; not fully specified (bridges)) [trigonal agonist of SEQ ID NO: 11] was tested, and the “In Vitro Activity Compared to Native Peptide (%) vs. GIP (relative titer from cAMP EC50)” value was 2.7%. In the case of H[Aib]QGTFTSDYSKYLDEKRQKEFVQWLLNTC (bridge 16-20; not fully specified (bridges)) [trigonal agonist of SEQ ID NO: 12], the “In Vitro Activity Compared to Native Peptide (%) vs. GIP (relative titer from cAMP EC50)” value is reported as 0.1%.

What follows are binders tested against human GLP-1 receptor (human, UniProt P43220 24-463) (assay: cell-based or functional assay).
Y[Aib]QGTFTSDYSKALDEKAAKDFVNWLLDHHPSSGQPPPSC (bridge 16-20; not fully specified (bridges)) [trigonal agonist of SEQ ID NO: 43] was tested, and the “In Vitro Activity Compared to Native Peptide (%) vs. GLP-1 (relative titer from cAMP EC50)” value was 20.9%. With H[Aib]QGTFTSDYSKYLDEKACKDFVQWLLDGGPSSGAPPPS (lactam 16-20) [trigonal agonist of SEQ ID NO: 5] the “In Vitro Activity Compared to Native Peptide (%) vs. GLP-1 (relative titer from cAMP EC50)” value was 151%. In the case of Y[Aib]QGTFTSDYSKALDEKAAKEFVQWLLDQHPSSGQPPPSC (bridge 16-20; not fully specified (bridges)) [trigonal agonist of SEQ ID NO: 44], the “In Vitro Activity Compared to Native Peptide (%) vs. GLP-1 (relative titer from cAMP EC50)” value is reported as 42.2%. With Y[Aib]QGTFTSDYSKALDEKAAKEFVNWLLDQHPSSGQPPPSC (bridge 16-20; not fully specified (bridges)) [trigonal agonist of SEQ ID NO: 45] the “In Vitro Activity Compared to Native Peptide (%) vs. GLP-1 (relative titer from cAMP EC50)” value was 23.2%. With Y[Aib]QGTFTSDYSKALDEKAAKDFVNWLLDQHPSSGQPPPSC (bridge 16-20; not fully specified (bridges)) [trigonal agonist of SEQ ID NO: 46] the “In Vitro Activity Compared to Native Peptide (%) vs. GLP-1 (relative titer from cAMP EC50)” value was 23.3%. In the case of H[Aib]QGTFTSDYSKYLDEKRQKEFVNWLLAQKC (bridge 16-20; not fully specified (bridges)) [trigonal agonist of SEQ ID NO: 6], the “In Vitro Activity Compared to Native Peptide (%) vs. GLP-1 (relative titer from cAMP EC50)” value is reported as 19.1%. H[Aib]QGTFTSDYSKYLCEKRQKEFVQWLLNGGPSSGAPPPSG (bridge 16-20; not fully specified (bridges)) [trigonal agonist of SEQ ID NO: 7] was tested, and the “In Vitro Activity Compared to Native Peptide (%) vs. GLP-1 (relative titer from cAMP EC50)” value was 37.4%. In the case of H[Aib]QGTFTSDYSKYLDECRQKEFVQWLLNGGPSSGAPPPSG (bridge 16-20; not fully specified (bridges)) [trigonal agonist of SEQ ID NO: 8], the “In Vitro Activity Compared to Native Peptide (%) vs. GLP-1 (relative titer from cAMP EC50)” value is reported as 236%. For Y[Aib]QGTFTSDYSKYLDEKRAKEFVQWLLDHHPSSGQPPPSC (lactam 16-20) [trigonal agonist of SEQ ID NO: 9], the “In Vitro Activity Compared to Native Peptide (%) vs. GLP-1 (relative titer from cAMP EC50)” value was 33.9%. With Y[Aib]QGTFTSDYSKYLDEKRAKEFVQWLLDHHCSSGQPPPS (bridge 16-20; not fully specified (bridges)) [trigonal agonist of SEQ ID NO: 10] the “In Vitro Activity Compared to Native Peptide (%) vs. GLP-1 (relative titer from cAMP EC50)” value was 12.6%. H[Aib]QGTFTSDYSKYLDEKRAKEFVQWLLDHHPSSGQPPPSC (bridge 16-20; not fully specified (bridges)) [trigonal agonist of SEQ ID NO: 11] was tested, and the “In Vitro Activity Compared to Native Peptide (%) vs. GLP-1 (relative titer from cAMP EC50)” value was 67.4%. For H[Aib]QGTFTSDYSKYLDEKRQKEFVQWLLNTC (bridge 16-20; not fully specified (bridges)) [trigonal agonist of SEQ ID NO: 12], the “In Vitro Activity Compared to Native Peptide (%) vs. GLP-1 (relative titer from cAMP EC50)” value was 14.4%.

Each binder was assayed against human GCG receptor (human, UniProt P47871 26-477) (assay: cell-based or functional assay).
human GCG receptor, sequence (P47871 26-477): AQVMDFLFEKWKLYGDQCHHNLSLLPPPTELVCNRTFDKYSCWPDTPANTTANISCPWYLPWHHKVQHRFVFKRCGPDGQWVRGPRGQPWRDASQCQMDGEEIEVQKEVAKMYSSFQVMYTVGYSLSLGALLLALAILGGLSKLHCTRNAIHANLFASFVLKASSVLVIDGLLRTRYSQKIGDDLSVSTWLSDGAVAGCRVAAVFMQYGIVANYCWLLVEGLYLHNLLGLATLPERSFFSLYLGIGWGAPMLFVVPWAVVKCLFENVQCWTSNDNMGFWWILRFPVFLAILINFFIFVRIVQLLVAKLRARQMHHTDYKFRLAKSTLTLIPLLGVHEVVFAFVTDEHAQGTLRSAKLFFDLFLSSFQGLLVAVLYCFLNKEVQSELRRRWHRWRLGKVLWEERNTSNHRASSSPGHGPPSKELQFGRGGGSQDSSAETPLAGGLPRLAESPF
In the case of Y[Aib]QGTFTSDYSKALDEKAAKDFVNWLLDHHPSSGQPPPSC (bridge 16-20; not fully specified (bridges)) [trigonal agonist of SEQ ID NO: 43], the “In Vitro Activity Compared to Native Peptide (%) vs. Glucagon (relative titer from cAMP EC50)” value is reported as 14.9%. In the case of H[Aib]QGTFTSDYSKYLDEKACKDFVQWLLDGGPSSGAPPPS (lactam 16-20) [trigonal agonist of SEQ ID NO: 5], the “In Vitro Activity Compared to Native Peptide (%) vs. Glucagon (relative titer from cAMP EC50)” value is reported as 1.7%. For Y[Aib]QGTFTSDYSKALDEKAAKEFVQWLLDQHPSSGQPPPSC (bridge 16-20; not fully specified (bridges)) [trigonal agonist of SEQ ID NO: 44], the “In Vitro Activity Compared to Native Peptide (%) vs. Glucagon (relative titer from cAMP EC50)” value was 12.7%. With Y[Aib]QGTFTSDYSKALDEKAAKEFVNWLLDQHPSSGQPPPSC (bridge 16-20; not fully specified (bridges)) [trigonal agonist of SEQ ID NO: 45] the “In Vitro Activity Compared to Native Peptide (%) vs. Glucagon (relative titer from cAMP EC50)” value was 13.9%. For Y[Aib]QGTFTSDYSKALDEKAAKDFVNWLLDQHPSSGQPPPSC (bridge 16-20; not fully specified (bridges)) [trigonal agonist of SEQ ID NO: 46], the “In Vitro Activity Compared to Native Peptide (%) vs. Glucagon (relative titer from cAMP EC50)” value was 29.5%. In the case of H[Aib]QGTFTSDYSKYLDEKRQKEFVNWLLAQKC (bridge 16-20; not fully specified (bridges)) [trigonal agonist of SEQ ID NO: 6], the “In Vitro Activity Compared to Native Peptide (%) vs. Glucagon (relative titer from cAMP EC50)” value is reported as 0.92%. With H[Aib]QGTFTSDYSKYLCEKRQKEFVQWLLNGGPSSGAPPPSG (bridge 16-20; not fully specified (bridges)) [trigonal agonist of SEQ ID NO: 7] the “In Vitro Activity Compared to Native Peptide (%) vs. Glucagon (relative titer from cAMP EC50)” value was 0.39%. With H[Aib]QGTFTSDYSKYLDECRQKEFVQWLLNGGPSSGAPPPSG (bridge 16-20; not fully specified (bridges)) [trigonal agonist of SEQ ID NO: 8] the “In Vitro Activity Compared to Native Peptide (%) vs. Glucagon (relative titer from cAMP EC50)” value was 6.21%. With Y[Aib]QGTFTSDYSKYLDEKRAKEFVQWLLDHHPSSGQPPPSC (lactam 16-20) [trigonal agonist of SEQ ID NO: 9] the “In Vitro Activity Compared to Native Peptide (%) vs. Glucagon (relative titer from cAMP EC50)” value was 206%. For Y[Aib]QGTFTSDYSKYLDEKRAKEFVQWLLDHHCSSGQPPPS (bridge 16-20; not fully specified (bridges)) [trigonal agonist of SEQ ID NO: 10], the “In Vitro Activity Compared to Native Peptide (%) vs. Glucagon (relative titer from cAMP EC50)” value was 88.4%. H[Aib]QGTFTSDYSKYLDEKRAKEFVQWLLDHHPSSGQPPPSC (bridge 16-20; not fully specified (bridges)) [trigonal agonist of SEQ ID NO: 11] was tested, and the “In Vitro Activity Compared to Native Peptide (%) vs. Glucagon (relative titer from cAMP EC50)” value was 50.5%. H[Aib]QGTFTSDYSKYLDEKRQKEFVQWLLNTC (bridge 16-20; not fully specified (bridges)) [trigonal agonist of SEQ ID NO: 12] was tested, and the “In Vitro Activity Compared to Native Peptide (%) vs. Glucagon (relative titer from cAMP EC50)” value was 2%.
